# Experiment: soluble on expression in E. coli; label from the status in PepcDB or PDB records
row,Sequence,soluble on expression in E. coli
1,MRLFFQHFLLFYAASAYNVSVNTNRSFLFGDVLEPLCSINVTGQNLTRSELIELFHKWEKYTSSQISSSSSISDYRKAMPCFPGPNLNLTSSNSDMIPQYPNCETFVNISKTTFGEANDLLEEVKKVRGVEQMDVSLKSVINSLSSRLQNLIDYLPDGATKNKTQERLSTLIEIGNQKLPETLRNSTRNQPPTQSTKSEFNPFELLSCFNISMMKTATVSGQTIGSIACSKFKLCSFSAVTSNPCLSNLRITEAQYDSVVNKTIAELIGEKLGGEQVQKKLGSAIGQFFGEHPRSKRTPKPRCENCTEEEYEDVTPLSDQVKMDGREELEESDDRSSGVESDESSGEVIDESYGKIDELDQEMSKRSTDSRKMSHEEITQAKIAKIRESIIDQLLTKTDDPDNSTDFQPTKRSAALEASQDNFKEALDNFRTEHIEDMTEGSGQESDRPTDSTKLYGSTQSPSEIIRPSIRTLNMETESSPVDFIENMSPISDSNDMDSSTVPNVAKKNNNFEKDLDAFRTVNNGSEKLNSSMFQELQTVLNLKLNSTMLEYAASFANISESLPKMSGEFTVSQFLQKMDINDWPTLKHLLNSMQSVFGNLPGFSQISNFIENLSSSGLDLKSVLKMIPAMNSSGTSLHKDAVLDLLNSFKSKISSSDTPKSPALEAAIQKISEASTLPTLLQNDLNSNDSSISDALNILKSNPLLSSLKI,soluble
2,MRLGVNVDHVATVRQARRTFEPSPVFAALIAQQAGADQITLHLREDRRHIQDRDLELIKELITIPVNLEMAPTEEMREIALRVKPDRITLVPERREEITTEGGLDVVSLKEKLKEYLKPIKEAGIEVSLFIEAQKEQIDASVEVGADAIEIHTGRYANLWNEHRFEEAKEELNRIKEAAIYAKEKGLKVYAGHGLTYHNVKDFVRELKGYVEELNIGHSIVANAVIFGFERAVKEMLNLIKT,soluble
3,MRLKDKAVLITGAAHGIGRATLELFAKEGARLVACDIEEGPLREAAEAVGAHPVVMDVADPASVERGFAEALAHLGRLDGVVHYAGITRDNFHWKMPLEDWELVLRVNLTGSFLVAKAASEAMREKNPGSIVLTASRVYLGNLGQANYAASMAGVVGLTRTLALELGRWGIRVNTLAPGFIETRMTAKVPEKVREKAIAATPLGRAGKPLEVAYAALFLLSDESSFITGQVLFVDGGRTIGAAPA,soluble
4,MRLRVDVIPGEHLAYPDVVLVVDVIRATTTAAAFLEAGAEALYWTPSLESALAFKDEDVVLAGETGGLKPPRFDLGNSPREALSAQVAGRVVVMSTTNGTKAAHAAARTAKHVLLASLYNAHAAARLARELATEEVAILCAGKEGRAGLDDLYTAGVLAEYLGFLGEVEPEDGARVALAVKRAYPDPLEALSLSAAALALKQVGLEADVPFCAQVAKSAAVPVLRGRVGEALIFKRA,soluble
5,MRLTNYSDYALRILTYLGLKREELSTITEIADCYGISRNHVVKIVHHLGQLGYVDTLRGKNGGIRLAHAPEKINIGEVIRHTETSMDIVECFSNQNSCIIGCSCVLRTAISEALSAFMAVLDDYTLADLIAPRRQLSRKLHVMQISDSLSD,not soluble
6,MRMLAAERRDHLLGLLARQGKIVAKDVAAELRISEDTVRRDLRDLASEGLCQRVYGGALPVSPAVADYGARRTVAPDGKRKVASAAAGLVRPGGVVILDGGTTALAVVHALPEDLDCTVITHSPTIAAALLDHPRAEVFVLGGRLFKHSAVACGAAAVEAAQNVSADLFLLGVTGVHLEAGLTTGDAEDAAMKRALAARAADTYVLASSEKIGTASRYRVLPWEEISGLVTDTPPHDPVIEQLTAGGVDVLAADAAALEHHHHHH,not soluble
7,MRNIAEAYFQNMVETATPLEQIILLYDKAIECLERAIEIYDQVNELEKRKEFVENIDRVYDIISALKSFLDHEKGKEIAKNLDTIYTIILNTLVKVDKTKEELQKILEILKDLREAWEEVKKKVHHHHHH,soluble
8,MRNIQIALTKGRLEKHVIPLFEQIGIDCSELKNKGRKLVFQSKNTDISFILVKAVDVATYVEHGVADIGVVGKDILMENEKDIYEMLDLGVGVCKFCVASIPTYNPKSYRKKCIATKYPHITSNYFHNKGEDVEIIKIEGSVEIAPILGLADAIVDIVETGKTLQENGLIVFEEMYSISARMIVNKAALKTKKDEIFSIINMMEQEILSGK,not soluble
9,MRNIQPRRLVTASGQPIVIRTAWPEDAERIVAFVKAVTAEALYLLTTEAEVTVTEDQQRQWLQKMADDPGKLALLAEHDGEMIGFLDFHNGNKRFRHEREKRLSRPGDRHGVACSAP,not soluble
10,MRPEELTKRFNEFSLWMTEEGVEQMSSYRNTNWEALKTELGKLPTLRHSCKNHVPQLVKEFCLEKRRYGVNPMYVHFLFCYYKKNIEDTRGRLEDDKETLEEIQRTHDELNVKFEELNKVKTFIKKQKESKGNVYLPNEYTEKHRLQNTIDNLKDKIQILVSTRNEQLWDFDNIPDGFQPMLELHHLKKDQVVYFVEKYLQRYTLGNKHKEIQLIVGKGSHSIDNDSAIQRKIRRNYAENVRSHPKNYGILLLKVP,not soluble
11,MRPRYRASGPSSSPDRTSSQPGSRSMIQCKRVYEPASPADGRRVLVDRLWPRGIRKEALAMDDWLKEVAPSNEVRKQFCHDPALFDSFREHYRAELQAHPEHWWGLLDSAREGTLTLLYGAHDQQHNNAVVLAEFLEEELDRQQPGSSPTCYADRLS,not soluble
12,MRQHTRIANHNHYSWRIAVMTDTHSIAQPFEAEVSPANNRHVTVGYASRYPDYSRIPAITLKGQWLEAAGFATGTAVDVKVMEGCIVLTAQPPAAEESELMQSLRQVCKLSARKQKQVQAFIGVIAGKQKVA,not soluble
13,MRQSSQARETTETKIKLNLQLDESTNVSIQTGVGFFDHMLTLFARHGRFGLQVEAEGDVFVDAHHTVEDVGIVLGNCLKEALQNKEGINRYGSAYVPMDESLGFVAIDISGRSYCVFQGELTNPKLGDFDTELTEEFFRAVAHAANITLHARVLYGSNTHHKIEALFKAFGRALREAVEKNANITGVNSTKGML,not soluble
14,MRQWTATHMAKLARKASIAVGKKGTDLPGQIARRVDHNILRKLAKQVDDIVFISGTNGKTTTSNLIGHTLKKNQINIIHNNEGANMAAGITSAFIMQSSKNTNIAIIEIDEGSIPRVLNEVTPSMMVFTNFFRDQMDRFGEIDIMVDNIAKSISNKGIKLLLNADDPFVSRLKIASHSIVYYGMKKFAHDFEQSTMNESKYCPNCGRLLQYDYIHYNQIGHYHCECGFKREEPTYEVSSFDASPFLKMIINQSEFNMKIAGDFNSYNAIAAYTVLRELGLNDDAIRKGFETYTSDNGRMQYFSKNKKEAMINLAKNPAGMNASLSVGEQIDDKKIYVISLNDNAADGRDISWIYDADFEKLATQDIEAIIVSGTRAEELQLRLKLAEVEVPIKVEKDIYKATALTMKYSSFTVAIPNYTSLTPMLEQLNRSFEGGQS,not soluble
15,MRRAEMLLLKSLAETLMADRDNRHDDLQATMRLAHLSSPEMILYMVNRVLELEESIERIAAVLQKLSADEPMPLEETPPEPAFEPALQSRATETAET,not soluble
16,MRRELGMGSEWLGEECEIVMGQSPPSETCNTVGIGIPLLNGPTEFGPHHPSPAQFTTDVRKRAIPGDILFCVRGSTTGRMNWADQEYAIGRGIAAIRHKFKPELQPFVRAVIECYLPELLAQATGSTFPNVSAQQLSNLKWPELAADEQRAIAYILGTLDDKIELNRKQNETLEAMARALFKAWFVDFEPVRAKLEGRWQRGQSLPGLPAHLYDLFPDCLVDSELGEIPEGWEIGSFADVVEIIGGSTPKTSVSEYWGGDIPWFSVVDTPASSDVFVVQTEKSITQSGLNESSARLISKGTTIISARGTVGNLAIAGCDMTFNQSCYALRSKNSLGSYFVFLSAQRMVEQLKAMAHGSVFSTITRQTFEAVQTVLPPENVLQQFERSFASLFDEILNNVNESRTLAKLRDTLLPKLISGELRVNDAKRILARIELDTATQRREQ,soluble
17,MRRVEKVIIVEGRSDKQKVAAVLNEPVVIVCTNGTISDARLEELADELEGYDVYLLADADEAGEKLRRQFRRMFPEAEHLYIDRAYREVAAAPIWHLAQVLLRARFDVRIESLMRGRGE,soluble

# — the DeepSol protein solubility set
